The values that follow come from PMC4941050, “Extra-coding RNAs regulate neuronal DNA methylation dynamics”.

A value given as a limit tells only on which side of the number the result lay.

Data set [1] addresses T1, DNMT3a-CD (mouse, UniProt O88508 608-908). Nature of the data set: EMSA; binding not impaired; 20 mM HEPES, 40 mM KCl, 1 mM EDTA, 0.2 mM DTT, 0.1 mg/ml BSA, 0.1% Tween-20, 20% glycerol; pH not stated; 1 h at 37 C; 1 nM probe; native 4-20% PAGE. The settings on record: protein: recombinant; label: 5'-Cy5.5; unstructured (predicted).
Data set [2] addresses DNMT3a (in DNMT3a/DNMT3l complex);DNMT3l (human;human, UniProt Q9Y6K1;Q9UJW3 1-912;1-386, |). The data set is described as follows: EMSA; 0.2 uM protein; 20 mM HEPES, 40 mM KCl, 1 mM EDTA, 0.2 mM DTT, 0.1 mg/ml BSA, 0.1% Tween-20, 20% glycerol; pH not stated; 1 h at 37 C; 1 nM probe; native 4-20% PAGE. In general terms: A gel shift assay detects complexes by their altered migration in electrophoresis.

In data set [3] the target is T1, DNMT3a-CD. The data set is described as follows: EMSA; 0.2 uM protein; complete binding; 20 mM HEPES, 40 mM KCl, 1 mM EDTA, 0.2 mM DTT, 0.1 mg/ml BSA, 0.1% Tween-20, 20% glycerol; pH not stated; 1 h at 37 C; 1 nM probe; native 4-20% PAGE. The settings on record: protein: recombinant; label: 5'-Cy5.5; predicted stem-loop.
The target of data set [4] is T1, DNMT3a-CD. Nature of the data set: EMSA; binding not altered; 20 mM HEPES, 40 mM KCl, 1 mM EDTA, 0.2 mM DTT, 0.1 mg/ml BSA, 0.1% Tween-20, 20% glycerol; pH not stated; 1 h at 37 C; 1 nM probe; native 4-20% PAGE. The settings on record: protein: recombinant; label: 5'-Cy5.5; unstructured (predicted).
Data set [5] has as its target T1, DNMT3a-CD. Nature of the data set: competition EMSA; vs 1 nM Cy5.5-ecRNA-1; competitor 1-100 nM; 20 mM HEPES, 40 mM KCl, 1 mM EDTA, 0.2 mM DTT, 0.1 mg/ml BSA, 0.1% Tween-20, 20% glycerol; pH not stated; 1 h at 37 C; 1 nM probe; native 4-20% PAGE. The settings on record: protein: recombinant; chain copies: 2; blunt.
Data set [6] concerns the target T1, DNMT3a-CD. Nature of the data set: EMSA; DNMT3a-CD 0.002-0.2 uM; value only in figure, text: low nanomolar, same as dsDNA (P=0.49); 20 mM HEPES, 40 mM KCl, 1 mM EDTA, 0.2 mM DTT, 0.1 mg/ml BSA, 0.1% Tween-20, 20% glycerol; pH not stated; 1 h at 37 C; 1 nM probe; native 4-20% PAGE. The following applies: protein: recombinant; label: 5'-Cy5.5; predicted stem-loop.

T1 sequence (O88508 608-908): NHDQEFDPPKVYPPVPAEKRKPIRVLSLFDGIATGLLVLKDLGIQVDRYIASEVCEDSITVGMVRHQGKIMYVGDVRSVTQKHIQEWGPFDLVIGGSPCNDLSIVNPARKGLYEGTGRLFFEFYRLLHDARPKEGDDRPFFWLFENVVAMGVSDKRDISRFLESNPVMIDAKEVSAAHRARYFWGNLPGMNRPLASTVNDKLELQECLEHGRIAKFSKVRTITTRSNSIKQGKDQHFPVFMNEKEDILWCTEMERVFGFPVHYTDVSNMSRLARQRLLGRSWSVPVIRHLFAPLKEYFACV
Sequence of DNMT3a (in DNMT3a/DNMT3l complex);DNMT3l (Q9Y6K1 whole entry, chain 1 of 2): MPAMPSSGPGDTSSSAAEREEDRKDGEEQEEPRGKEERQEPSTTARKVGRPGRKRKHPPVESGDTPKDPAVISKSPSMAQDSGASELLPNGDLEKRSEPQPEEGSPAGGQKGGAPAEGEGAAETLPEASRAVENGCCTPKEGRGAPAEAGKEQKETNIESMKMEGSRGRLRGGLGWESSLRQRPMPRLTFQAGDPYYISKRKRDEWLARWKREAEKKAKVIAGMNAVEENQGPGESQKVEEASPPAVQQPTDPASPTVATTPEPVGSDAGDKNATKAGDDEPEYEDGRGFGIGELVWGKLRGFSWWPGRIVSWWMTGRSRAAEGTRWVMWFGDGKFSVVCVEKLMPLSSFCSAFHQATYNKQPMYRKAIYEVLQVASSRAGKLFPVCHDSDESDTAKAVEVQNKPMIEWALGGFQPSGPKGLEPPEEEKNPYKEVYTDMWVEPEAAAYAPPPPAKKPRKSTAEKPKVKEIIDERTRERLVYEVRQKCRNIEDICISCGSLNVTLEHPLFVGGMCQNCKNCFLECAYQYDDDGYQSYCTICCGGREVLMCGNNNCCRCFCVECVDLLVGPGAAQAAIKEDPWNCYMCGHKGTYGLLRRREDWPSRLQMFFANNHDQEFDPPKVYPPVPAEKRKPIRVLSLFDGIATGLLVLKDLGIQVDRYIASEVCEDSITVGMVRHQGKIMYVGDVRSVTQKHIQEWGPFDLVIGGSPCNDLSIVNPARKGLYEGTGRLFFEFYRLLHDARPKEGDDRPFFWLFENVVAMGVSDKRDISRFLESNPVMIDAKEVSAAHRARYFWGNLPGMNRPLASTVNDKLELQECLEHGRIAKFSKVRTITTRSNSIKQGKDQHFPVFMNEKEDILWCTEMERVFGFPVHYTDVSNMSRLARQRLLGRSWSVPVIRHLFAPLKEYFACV
Sequence of DNMT3a (in DNMT3a/DNMT3l complex);DNMT3l (Q9UJW3 whole entry, chain 2 of 2): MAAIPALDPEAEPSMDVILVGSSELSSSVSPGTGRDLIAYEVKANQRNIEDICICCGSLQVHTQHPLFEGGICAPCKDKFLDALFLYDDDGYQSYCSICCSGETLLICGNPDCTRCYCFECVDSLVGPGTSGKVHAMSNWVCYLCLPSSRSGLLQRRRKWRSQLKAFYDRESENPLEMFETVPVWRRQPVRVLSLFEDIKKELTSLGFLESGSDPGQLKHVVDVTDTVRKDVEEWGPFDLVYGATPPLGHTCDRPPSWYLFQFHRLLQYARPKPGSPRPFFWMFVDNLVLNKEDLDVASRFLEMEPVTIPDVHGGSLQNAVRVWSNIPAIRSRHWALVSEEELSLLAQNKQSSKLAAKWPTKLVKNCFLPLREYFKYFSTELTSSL

B1: mutant ecRNA-1 (ssRNA)
RNA: GUCGACACGCCCUCUGUUCCGUUAG
In the case of B1, in the data set with DNMT3a-CD [1], the binding result was “binds”.

B2: ecRNA-2 (ssRNA)
RNA: GUCUGUGCACCGUGUGCAUAUACAG
Regarding B2, the binding result (in data set [2]; with DNMT3a-CD [3]) was “binds” throughout.

B3: mutant ecRNA-2 (ssRNA)
RNA: GAUGAUCCUGCCUUGAAGUGACGCU
Turning to B3, in the data set with DNMT3a-CD [4], the binding result is recorded as “binds”.

B4: ecDNA-1 unlabelled competitor (dsDNA)
DNA 1: GGGGACACGCCCTCTGTTCCCTTAT
DNA 2: ATAAGGGAACAGAGGGCGTGTCCCC
For B4, the IC50 in the data set with DNMT3a-CD [5] is > 20 fold excess over 1 nM ecRNA-1.

B5: ecRNA-1 (ssRNA)
RNA: GGGGACACGCCCUCUGUUCCCUUAU
For B5, the binding result (in data set [2]; with DNMT3a-CD [6]) was “binds” throughout.
